Laboratory results published in publication PMC5090066, “An affinity-directed protein missile system for targeted proteolysis” (Open Biology, 2016).

Tests used:
[1] = biological target: T1, GFP-VPS34 (endogenous VPS34 with a GFP tag knocked in at the N-terminus) (Aequorea victoria GFP (tag on human …, UniProt P42212 = GFP)); experiment: pull-down; aGFP16 tethered to sepharose beads; cell extracts; pull-downs and flow-through extracts analysed; conditions: one partner purified
T1 construct: GFP tag knocked in around the start codon of VPS34; donor construct DU52175; VPS34, class III phosphatidylinositol 3-kinase, human, expressed from its own locus; also called vacuolar protein sorting 34; source: endogenous, homozygous CRISPR/Cas9 knock-in HEK293 cells, in cell extract

[2] = biological target: T2, PAWS1-GFP (endogenous PAWS1/FAM83G with a GFP tag knocked in at the C-terminus) (Aequorea victoria GFP (tag on human …, UniProt P42212 = GFP)); experiment: as above; conditions: one partner purified
T2 construct: PAWS1 (FAM83G), human, expressed from its own locus; GFP tag knocked in around the stop codon of PAWS1; donor construct DU48585; also called protein associated with SMAD1; source: endogenous, homozygous CRISPR/Cas9 knock-in U2OS cells, in cell extract

B1: aGFP16, cameloid anti-GFP nanobody, tethered to sepharose beads (VHH)
VHH: QVQLVESGGRLVQAGDSLRLSCAASGRTFSTSAMAWFRQAPGREREFVAAITWTVGNTILGDSVKGRFTISRDRAKNTVDLQMDNLEPEDTAVYYCSARSRGYVLSVLRSVDSYDYWGQGTQVTVSG
notes: DU54238 is the cDNA in the pBABED/pRetroX vectors
B1: binds [1]; binds [2].
